Literature values, collected in PMC3150215.
Where two headings read alike, the source gives them in different places.

Columns and labels:
[1] = target: Capping protein (Mus musculus) (UniProt P47753)
[2] = target: Capping protein (Mus musculus) (UniProt P47753); remark: listed apart in the source

Kd [1] [nM] | Kd [2] [nM] | Substance
1.5 |  | CARMIL CBR115 CBR115 (from UniProt Q6EDY6)
 | 6 | CD2AP 474-513 (from UniProt Q9Y5K6)
